From patent US20230002496A1 (STAIDSON BEIJING BIOPHARMACEUTICALS, published 2023) come the findings set out here.

B1: E35-VH28E-VL30L-IG4 (antibody, IgG4, V domains shown)
VH: QMQLVQSGAEVKKPGASVKVSCKVSGYELTELSIHWVRQAPGKGLEWMGGFDPEDGETIYAQKFQGRVTMTGDTSTDTAYLELSSLRSEDTALYYCATGRYTSLATTYGFDYWGQGTLVTVSS
VL: EIVMTQSPATLSLSPGERATLSCRASQSVLSYLAWYQQKPGQAPRLLIYGASSRATGIPDRFSGSGSGTDFTLTISRLEPEDFAVYYCQQYDNWPYTFGQGTKLEIK
B2: E35-VH28H-VL30L-93D-IG4 (antibody, IgG4, V domains shown)
VH: QMQLVQSGAEVKKPGASVKVSCKVSGYHLTELSIHWVRQAPGKGLEWMGGFDPEDGETIYAQKFQGRVTMTGDTSTDTAYLELSSLRSEDTALYYCATGRYTSLATTYGFDYWGQGTLVTVSS
VL: EIVMTQSPATLSLSPGERATLSCRASQSVLSYLAWYQQKPGQAPRLLIYGASSRATGIPDRFSGSGSGTDFTLTISRLEPEDFAVYYCQQYDDWPYTFGQGTKLEIK
B3: E35-VH28E-VL30C-IG4 (antibody, IgG4, V domains shown)
VH: QMQLVQSGAEVKKPGASVKVSCKVSGYELTELSIHWVRQAPGKGLEWMGGFDPEDGETIYAQKFQGRVTMTGDTSTDTAYLELSSLRSEDTALYYCATGRYTSLATTYGFDYWGQGTLVTVSS
VL: EIVMTQSPATLSLSPGERATLSCRASQSVCSYLAWYQQKPGQAPRLLIYGASSRATGIPDRFSGSGSGTDFTLTISRLEPEDFAVYYCQQYDNWPYTFGQGTKLEIK
B4: E27-IgG1 (antibody, V domains shown)
VH: QMQLVQSGAEVKKPGASVKVSCKVSGYTLTELSIHWVRQAPGKGLEWMGGFDPEDGETIYAQKFQGRVTMTGDTSTDTAYLELSSLRSEDTALYYCATGRYISFMFTYGFDYWGQGTLVTVSS
VL: EIVMTQSPATLSLSPGERATLSCRASQSVSSYLAWYQQKPGQAPRLLIYGASSRATGIPDRFSGSGSGTDFTLTISRLEPEDFAVYYCQQYNNWPPTFGQGTKLEIK
notes: human IgG1, human kappa
B5: E09-IgG1 (antibody, V domains shown)
VH: QMQLVQSGAEVKKPGASVKVSCKVSGHTLTELSMHWVRQAPGKGLEWMGGFDPEDGETIYAQKFQGRVTMTGDTSTDTAYLELSSLRSEDTALYYCATGRYCGHASCYGFDYWGQGTLVTVSS
VL: EIVMTQSPATLSLSPGERATLSCRASQSVSSYLAWYQQKPGQAPRLLIYGASSRATGIPDRFSGSGSGTDFTLTISRLEPEDFAVYYCQQYNNWPPTFGQGTKLEIK
notes: human IgG1, human kappa; also called E9
B6: E30-IgG1 (antibody, V domains shown)
VH: QMQLVQSGAEVKKPGASVKVSCKVSGHTLTELSIHWVRQAPGKGLEWMGGFDPEDGETIYAQKFQGRVTMTGDTSTDTAYLELSSLRSEDTALYYCATGRYCSTDTCYGFDYWGQGTLVTVSS
VL: EIVMTQSPATLSLSPGERATLSCRASQSVSSYLAWYQQKPGQAPRLLIYGASSRATGIPDRFSGSGSGTDFTLTISRLEPEDFAVYYCQQYDNSPHTFGQGTKLEIK
notes: human IgG1, human kappa
B7: E16-IgG1 (antibody, V domains shown)
VH: QMQLVQSGAEVKKPGASVKVSCKVSGYTLTELSIHWVRQAPGKGLEWMGGFDPEDGEAIYAQKSQGRVTMTGDTSTDTAYLELSSLRSEDTALYYCATGRYSEHSTSYGFDYWGQGTLVTVSS
VL: EIVMTQSPATLSLSPGERATLSCRASQSVSSYLAWYQQKPGQAPRLLIYGASSRATGIPDRFSGSGSGTDFTLTISRLEPEDFAVYYCQQYDSWPYTFGQGTKLEIK
notes: human IgG1, human kappa
B8: E29-IgG1 (antibody, V domains shown)
VH: QMQLVQSGAEVKKPGASVKVSCKVSGHTLTELSIHWVRQAPGKGLEWMGGFDPEDGETIYAQKFQGRVTMTGDTSTDTAYLELSSLRSEDTALYYCATGRYCFPDTCYGFDYWGQGTLVTVSS
VL: EIVMTQSPATLSLSPGERATLSCRASQSVSSYLAWYQQKPGQAPRLLIYGASSRATGIPDRFSGSGSGTDFTLTISRLEPEDFAVYYCQQYDNSPHTFGQGTKLEIK
notes: human IgG1, human kappa
B9: E34-IgG1 (antibody, V domains shown)
VH: QMQLVQSGAEVKKPGASVKVSCKVSGYTLTELSIHWVRQAPGKGLEWMGGFDPEDGETIYAQKFQGRVTMTGDTSTDTAYLELSSLRSEDTALYYCATGRYSFTDLAYGFDYWGQGTLVTVSS
VL: EIVMTQSPATLSLSPGERATLSCRASQSVSSYLAWYQQKPGQAPRLLIYGASSRATGIPDRFSGSGSGTDFTLTISRLEPEDFAVYYCQQYDSSPPTFGQGTKLEIK
notes: human IgG1, human kappa
B10: E01-IgG1 (antibody, V domains shown)
VH: QMQLVQSGAEVKKPGASVKVSCKVSGHTLTELSIHWVRQAPGKGLEWMGGFDPEDGETNYAQKSQGRVTMTGDTSTDTAYLELSSLRSEDTALYYCATGRYCSTDTCYGFDYWGQGTLVTVSS
VL: EIVMTQSPATLSLSPGERATLSCRASQSVSSYLAWYQQKPGQAPRLLIYGASSRATGIPDRFSGSGSGTDFTLTISRLEPEDFAVYYCQQYDNWPPTFGQGTKLEIK
notes: human IgG1, human kappa; also called E1
B11: E172-IgG1 (antibody, V domains shown)
VH: QMQLVQSGAEVKKPGASVKVSCKVSGYTLTELSMHWVRQAPGKGLEWMGGFDPEDGETIYAQKFQGRVTMTGDTSTDTAYLELSSLRSEDTALYYCATGRYANLYNNYGFDYWGQGTLVTVSS
VL: EIVMTQSPATLSLSPGERATLSCRASQSVSSYLAWYQQKPGQAPRLLIYGASSRATGIPDRFSGSGSGTDFTLTISRLEPEDFAVYYCQQYNNWPPTFGQGTKLEIK
notes: human IgG1, human kappa
B12: E164-IgG1 (antibody, V domains shown)
VH: QMQLVQSGAEVKKPGASVKVSCKVSGHTLTELSMHWVRQAPGKGLEWMGGFDPEDGETIYAQKSQGRVTMTGDTSTDTAYLELSSLRSEDTALYYCATGRYTNDFANYGFDYWGQGTLVTVSS
VL: EIVMTQSPATLSLSPGERATLSCRASQSVSSYLAWYQQKPGQAPRLLIYGASSRATGIPDRFSGSGSGTDFTLTISRLEPEDFAVYYCQQYNNWPYTFGQGTKLEIK
notes: human IgG1, human kappa
B13: E88-IgG1 (antibody, V domains shown)
VH: QMQLVQSGAEVKKPGASVKVSCKVSGHTLTELSMHWVRQAPGKGLEWMGGFDPEDGETIYAQKFQGRVTMTGDTSTDTAYLELSSLRSEDTALYYCATGRYCHKDGCYGFDYWGQGTLVTVSS
VL: EIVMTQSPATLSLSPGERATLSCRASQSVSSYLAWYQQKPGQAPRLLIYGASSRATGIPDRFSGSGSGTDFTLTISRLEPEDFAVYYCQQYDSSPHTFGQGTKLEIK
notes: human IgG1, human kappa
B14: E83-IgG1 (antibody, V domains shown)
VH: QMQLVQSGAEVKKPGASVKVSCKVSGYTLTELSIHWVRQAPGKGLEWMGGFDPEDGETIYAQKSQGRVTMTGDTSTDTAYLELSSLRSEDTALYYCATGRYCFYDLCYGFDYWGQGTLVTVSS
VL: EIVMTQSPATLSLSPGERATLSCRASQSVSSYLAWYQQKPGQAPRLLIYGASSRATGIPDRFSGSGSGTDFTLTISRLEPEDFAVYYCQQYSNSPPTFGQGTKLEIK
notes: human IgG1, human kappa
B15: E61-IgG1 (antibody, V domains shown)
VH: QMQLVQSGAEVKKPGASVKVSCKVSGYTLTELSMHWVRQAPGKGLEWMGGFDPEDGETIYAQKFQGRVTMTGDTSTDTAYLELSSLRSEDTALYYCATGRYAWTDIAYGFDYWGQGTLVTVSS
VL: EIVMTQSPATLSLSPGERATLSCRASQSVSSYLAWYQQKPGQAPRLLIYGASSRATGIPDRFSGSGSGTDFTLTISRLEPEDFAVYYCQQYDNSPSTFGQGTKLEIK
notes: human IgG1, human kappa
B16: E84-IgG1 (antibody, V domains shown)
VH: QMQLVQSGAEVKKPGASVKVSCKVSGYTLTELSMHWVRQAPGKGLEWMGGFDPEDGETIYAQKSQGRVTMTGDTSTDTAYLELSSLRSEDTALYYCATGRYTRGWFNYGFDYWGQGTLVTVSS
VL: EIVMTQSPATLSLSPGERATLSCRASQSVSSYLAWYQQKPGQAPRLLIYGASSRATGIPDRFSGSGSGTDFTLTISRLEPEDFAVYYCQQYNNWPYTFGQGTKLEIK
notes: human IgG1, human kappa
B17: E31-IgG1 (antibody, V domains shown)
VH: QMQLVQSGAEVKKPGASVKVSCKVSGYTLTELSIHWVRQAPGKGLEWMGGFDPEDGETIYAQKSQGRVTMTGDTSTDTAYLELSSLRSEDTALYYCATGRYSESFASYGFDYWGQGTLVTVSS
VL: EIVMTQSPATLSLSPGERATLSCRASQSVSSYLAWYQQKPGQAPRLLIYGASSRATGIPDRFSGSGSGTDFTLTISRLEPEDFAVYYCQQYDNWPYTFGQGTKLEIK
notes: human IgG1, human kappa
B18: E90-IgG1 (antibody, V domains shown)
VH: QMQLVQSGAEVKKPGASVKVSCKVSGYTLTELSIHWVRQAPGKGLEWMGGFDPEDGETIYAQKSQGRVTMTGDTSTDTAYLELSSLRSEDTALYYCATGRYTGLYASYGFDYWGQGTLVTVSS
VL: EIVMTQSPATLSLSPGERATLSCRASQSVSSYLAWYQQKPGQAPRLLIYGASSRATGIPDRFSGSGSGTDFTLTISRLEPEDFAVYYCQQYDNWPYTFGQGTKLEIK
notes: human IgG1, human kappa

One assay has as its target T1, human GM-CSFRα, full length on cells (human, UniProt P15509 23-400).
T1 sequence: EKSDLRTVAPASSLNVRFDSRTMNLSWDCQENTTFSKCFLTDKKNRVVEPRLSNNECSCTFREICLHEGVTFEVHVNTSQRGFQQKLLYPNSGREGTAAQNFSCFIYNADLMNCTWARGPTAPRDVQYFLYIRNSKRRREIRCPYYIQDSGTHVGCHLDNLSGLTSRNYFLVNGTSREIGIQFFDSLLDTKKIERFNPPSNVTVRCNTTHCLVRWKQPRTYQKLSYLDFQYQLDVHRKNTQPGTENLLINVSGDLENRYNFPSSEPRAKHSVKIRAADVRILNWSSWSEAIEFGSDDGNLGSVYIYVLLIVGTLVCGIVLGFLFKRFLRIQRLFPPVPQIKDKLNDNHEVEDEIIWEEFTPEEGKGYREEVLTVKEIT
In words: cell-based or functional assay.
With B1, the “IC50, TF-1 cell proliferation” value was found to be 0.0268 µg/mL.

On to B2, for which the “IC50, TF-1 cell proliferation” value came out at 0.0241 µg/mL.

As to B3, the “IC50, TF-1 cell proliferation” value turned out to be 0.0208 µg/mL.

A further assay addresses T2, human GM-CSFRα-6His (human, UniProt P15509 23-320).
T2 construct: pTT5-GMRa-6his (ECD), made in 293F cells; also called GMRah; GMRa-6his(ECD)
T2 sequence: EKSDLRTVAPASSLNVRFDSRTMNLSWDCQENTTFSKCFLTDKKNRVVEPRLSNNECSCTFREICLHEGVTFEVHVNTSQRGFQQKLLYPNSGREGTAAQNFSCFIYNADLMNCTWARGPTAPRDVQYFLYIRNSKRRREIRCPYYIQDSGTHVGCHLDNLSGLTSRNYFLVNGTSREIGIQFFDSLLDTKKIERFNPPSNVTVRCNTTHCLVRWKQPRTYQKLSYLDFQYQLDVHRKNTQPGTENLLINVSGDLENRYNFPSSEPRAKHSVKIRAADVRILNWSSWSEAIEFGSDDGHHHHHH
In words: ELISA on human GM-CSFRα, antibodies as human IgG1; x axis 'Log Ab concentration', no unit.
Regarding B4, the binding result is listed as “binds”.

Regarding B5, the binding result was “binds”.

B6: the binding result was “binds”.

For B7, the binding result is given as “binds”.

Consider B8, for which the binding result is “binds”.

Regarding B9, the binding result is “binds”.

A further assay has as its target T2, human GM-CSFRα-6His. The assay is described as above. This is another data set of the same source.
As to B10, the binding result is reported as “binds”.

With B11, the binding result is “binds”.

For the molecule B12, the binding result is reported as “binds”.

With B13, the binding result is reported as “binds”.

On to B14, for which the binding result is “binds”.

For B15, the binding result is “binds”.

In the case of B16, the binding result is “binds”.

In the case of B17, the binding result is “binds”.

With B18, the binding result is “binds”.
